These results are taken from publication PMC12561191.

As usually defined, the Kd is the concentration at which binding is half-saturated. Higher therefore signals weaker binding.

In this assay the target is BAX, the ligand protein coupled on the SPR chip, Q07812. The assay is described as follows: SPR. To be noted: natural protein; chains chain; remark: other sources report otherwise.
Sequence of BAX, the ligand protein coupled on the SPR chip, Q07812 (Q07812 whole entry): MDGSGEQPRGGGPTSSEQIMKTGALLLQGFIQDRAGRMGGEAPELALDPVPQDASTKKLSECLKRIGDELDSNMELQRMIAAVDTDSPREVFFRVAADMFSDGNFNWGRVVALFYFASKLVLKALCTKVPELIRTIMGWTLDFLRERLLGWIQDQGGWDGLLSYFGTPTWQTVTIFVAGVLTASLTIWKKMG

B1: recombinant human MANF (rhMANF) protein, P55145 25-182 (protein)
chain: LRPGDCEVCISYLGRFYQDLKDRDVTFSPATIENELIKFCREARGKENRLCYYIGATDDAATKIINEVSKPLAHHIPVEKICEKLKKKDSQICELKYDKQIDLSTVDLKKLRVKELKKILDDWGETCKGCAEKSDYIRKINELMPKYAPKAASARTDL
The molecule B1 returned an equilibrium dissociation constant (Kd) of 11.3 µM.
